Test [1] addresses receptor on MCF-7 cells. The test can be described thus: cell-based or functional assay.
Test [2] has as its target receptor on MCF-7 cells. The test can be described thus: cell-based or functional assay. The source holds these as a separate data set.

Where two headings read alike, the source gives them in different places.

The EC50 is the concentration at which the effect is half-maximal. A high value points to a need for much substance. Turning to “recombinant NRG polypeptide with an amino acid sequence of SEQ ID NO: 1 (from UniProt Q02297-11 122-190) (ligand)”, the EC50 is 0.924 nM in test [1] and 1.65 nM in test [2].

The values above are taken from US20230057622A1.
